Measured values: patent publication US20100184651A1 (DABUR PHARMA, published 2010)

Target: T1, VPAC1 receptor (human, UniProt P32241 31-457)
T1 sequence (looked up): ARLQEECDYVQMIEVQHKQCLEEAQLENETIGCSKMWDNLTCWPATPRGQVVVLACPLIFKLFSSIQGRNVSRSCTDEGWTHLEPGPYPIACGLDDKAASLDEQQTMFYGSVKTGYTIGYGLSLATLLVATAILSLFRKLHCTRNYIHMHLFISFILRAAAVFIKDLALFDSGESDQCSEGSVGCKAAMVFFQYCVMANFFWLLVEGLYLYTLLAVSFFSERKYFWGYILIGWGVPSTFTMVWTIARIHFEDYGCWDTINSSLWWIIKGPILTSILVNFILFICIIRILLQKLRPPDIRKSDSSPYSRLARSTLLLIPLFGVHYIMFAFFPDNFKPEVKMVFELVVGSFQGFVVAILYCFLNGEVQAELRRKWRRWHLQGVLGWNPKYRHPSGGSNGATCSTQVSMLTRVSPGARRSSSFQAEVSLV
Experiment: cell-based or functional assay

B1: VIP-BH3 BID fusion protein (other)
chain: MHSDAVFTDNYTRLRKQMAVKKYLNSILNGSSLLIARRMPNFNEDIIRNIARHLAQVGDSMDRLEHHHHHH
  IC50, cytotoxicity on A549 cells (MTT assay, 24 h): ~5 µM
  IC50, cytotoxicity on HT29 cells (MTT assay, 24 h): ~15 µM
